In patent publication US20260356929 (published 2026):

T1: human VEGF-A165b (human, UniProt P15692)
T1 chain: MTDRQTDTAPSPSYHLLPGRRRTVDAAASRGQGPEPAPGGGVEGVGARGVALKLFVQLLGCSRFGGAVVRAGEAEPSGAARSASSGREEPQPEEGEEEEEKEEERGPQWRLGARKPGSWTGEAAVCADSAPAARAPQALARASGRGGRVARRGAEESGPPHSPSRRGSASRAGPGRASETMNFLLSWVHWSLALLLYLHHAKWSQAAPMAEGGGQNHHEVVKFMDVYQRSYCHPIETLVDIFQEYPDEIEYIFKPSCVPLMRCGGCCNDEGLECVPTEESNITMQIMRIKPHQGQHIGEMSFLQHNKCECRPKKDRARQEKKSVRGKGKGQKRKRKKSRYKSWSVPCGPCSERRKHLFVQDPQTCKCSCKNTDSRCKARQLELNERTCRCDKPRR

B1: HC0 LC0 (chimeric Ab 1126) (antibody, V domains shown)
VH: EVKLLESGGGLVQPGGSLKLSCAASGFDFSRYWMSWVRQAPGKGLEWIGEIHPYSSTINYTPSVKDKFIISRDNAKNTLYLQMSEVRSEDTALYYCARAFAYWGQGTLVTVSA
VL: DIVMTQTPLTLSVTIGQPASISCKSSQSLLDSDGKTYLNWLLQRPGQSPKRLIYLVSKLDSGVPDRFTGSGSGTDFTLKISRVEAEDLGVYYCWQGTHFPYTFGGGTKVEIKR
B2: HC3 LC1 (antibody, V domains shown)
VH: EVQLVESGGGLVQPGGSLRLSCAASGFDFSRYWMSWVRQAPGKGLEWISEIHPYSSTINYTPSVKDRFTISRDNAKNSLYLQMNSLRDEDTALYYCARAFAYWGQGTLVTVSS
VL: DVVMTQSPLSLPVTLGQPASISCKSSQSLLDSDGKTYLNWFQQRPGQSPRRLIYLVSKLDSGVPDRFSGSGSGTDFTLKISRVEAEDVGVYYCWQGTHFPYTFGGGTKVEIKR
B3: HC4 LC1 (antibody, V domains shown)
VH: EVQLVESGGGLVQPGGSLRLSCAASGFDFSRYWMSWVRQAPGKGLEWVAEIHPYSSTINYTPSVKDRFTISRDNAKNSLYLQMNSLRSEDTAVYYCARAFAYWGQGTLVTVSS
VL: DVVMTQSPLSLPVTLGQPASISCKSSQSLLDSDGKTYLNWFQQRPGQSPRRLIYLVSKLDSGVPDRFSGSGSGTDFTLKISRVEAEDVGVYYCWQGTHFPYTFGGGTKVEIKR
B4: HC3 LC2 (antibody, V domains shown)
VH: EVQLVESGGGLVQPGGSLRLSCAASGFDFSRYWMSWVRQAPGKGLEWISEIHPYSSTINYTPSVKDRFTISRDNAKNSLYLQMNSLRDEDTALYYCARAFAYWGQGTLVTVSS
VL: DVVMTQSPLSLPVTLGQPASISCRSSQSLLDSDGKTYLNWELQRPGQSPRRLIYLVSKLDSGVPDRFSGSGSGTDFTLKISRVEAEDVGVYYCWQGTHFPYTFGQGTKVEIKR
B5: HC5 LC1 (antibody, V domains shown)
VH: EVQLVESGGGLVQPGGSLRLSCAASGFDFSRYWMSWVRQAPGKGLEWVSEIHPYSSTINYTPSVKDRFTISRDNAKNSLYLQMNSLRAEDTAVYYCARAFAYWGQGTLVTVSA
VL: DVVMTQSPLSLPVTLGQPASISCKSSQSLLDSDGKTYLNWFQQRPGQSPRRLIYLVSKLDSGVPDRFSGSGSGTDFTLKISRVEAEDVGVYYCWQGTHFPYTFGGGTKVEIKR
B6: HC5 LC2 (antibody, V domains shown)
VH: EVQLVESGGGLVQPGGSLRLSCAASGFDFSRYWMSWVRQAPGKGLEWVSEIHPYSSTINYTPSVKDRFTISRDNAKNSLYLQMNSLRAEDTAVYYCARAFAYWGQGTLVTVSA
VL: DVVMTQSPLSLPVTLGQPASISCRSSQSLLDSDGKTYLNWELQRPGQSPRRLIYLVSKLDSGVPDRFSGSGSGTDFTLKISRVEAEDVGVYYCWQGTHFPYTFGQGTKVEIKR
B7: HC1 LC1 (antibody, V domains shown)
VH: EVQLLESGGGLVKPGGSLRLSCAASGFDFSRYWMSWIRQAPGKGLEWVSEIHPYSSTINYTPSVKDRFTISRDNAKNSLYLQMNSLRAEDTAVYYCARAFAYWGQGTLVTVSS
VL: DVVMTQSPLSLPVTLGQPASISCKSSQSLLDSDGKTYLNWFQQRPGQSPRRLIYLVSKLDSGVPDRFSGSGSGTDFTLKISRVEAEDVGVYYCWQGTHFPYTFGGGTKVEIKR
B8: HC4 LC2 (Vexobicizumab) (antibody, V domains shown)
VH: EVQLVESGGGLVQPGGSLRLSCAASGFDFSRYWMSWVRQAPGKGLEWVAEIHPYSSTINYTPSVKDRFTISRDNAKNSLYLQMNSLRSEDTAVYYCARAFAYWGQGTLVTVSS
VL: DVVMTQSPLSLPVTLGQPASISCRSSQSLLDSDGKTYLNWELQRPGQSPRRLIYLVSKLDSGVPDRFSGSGSGTDFTLKISRVEAEDVGVYYCWQGTHFPYTFGQGTKVEIKR
B9: HC2 LC1 (antibody, V domains shown)
VH: EVQLVESGGGLVQPGGSLRLSCAASGFDFSRYWMSWVRQAPGKGLEWVAEIHPYSSTINYTPSVKDRFIISRDNAKNSVYLQLNSLRAEDTAVYYCARAFAYWGQGTLVTVSS
VL: DVVMTQSPLSLPVTLGQPASISCKSSQSLLDSDGKTYLNWFQQRPGQSPRRLIYLVSKLDSGVPDRFSGSGSGTDFTLKISRVEAEDVGVYYCWQGTHFPYTFGGGTKVEIKR
B10: HC2 LC2 (antibody, V domains shown)
VH: EVQLVESGGGLVQPGGSLRLSCAASGFDFSRYWMSWVRQAPGKGLEWVAEIHPYSSTINYTPSVKDRFIISRDNAKNSVYLQLNSLRAEDTAVYYCARAFAYWGQGTLVTVSS
VL: DVVMTQSPLSLPVTLGQPASISCRSSQSLLDSDGKTYLNWELQRPGQSPRRLIYLVSKLDSGVPDRFSGSGSGTDFTLKISRVEAEDVGVYYCWQGTHFPYTFGQGTKVEIKR
B11: HC1 LC2 (antibody, V domains shown)
VH: EVQLLESGGGLVKPGGSLRLSCAASGFDFSRYWMSWIRQAPGKGLEWVSEIHPYSSTINYTPSVKDRFTISRDNAKNSLYLQMNSLRAEDTAVYYCARAFAYWGQGTLVTVSS
VL: DVVMTQSPLSLPVTLGQPASISCRSSQSLLDSDGKTYLNWELQRPGQSPRRLIYLVSKLDSGVPDRFSGSGSGTDFTLKISRVEAEDVGVYYCWQGTHFPYTFGQGTKVEIKR

Molecular target: T1, human VEGF-A165b
Assay: BLI 25C
B1 showed a Kd of 0.3 nM.
B2 was tested, and the Kd was 1.5 nM.
B3 showed a Kd of 0.9 nM.
B4 was tested, and the Kd was 1.17 nM.
For B5, the Kd was 3.2 nM.
With B6 the Kd was 0.6 nM.
B7 gave a Kd of 5 nM.
B8 gave a Kd of 0.6 nM.
Work on B9 yielded a Kd of 4.4 nM.
For B10, the Kd was 3.6 nM.
For B11, the Kd was 2.1 nM.
